± gives the uncertainty stated by the source.

The nature of the data set: amyloid nucleation score (Sup35N fusion, yeast selection) (log enrichment); library NNK2; higher = more nucleation; inactive = no reads after selection. The procedure, abridged:
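Output and input plasmid inserts were sequenced by Illumina after psi-negative yeast carrying Sup35N fused to peptides of 20 random codons had been induced 24 hours with 100 μM copper sulfate and grown 7 days at 30°C on medium lacking adenine and uracil. The nucleation score is the DiMSum log enrichment of output over input reads, centred on the mode score of non-aggregating sequences. Sequences with under 100 input reads were excluded.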
CSMMEPTMY returned an amyloid nucleation score of 0.269 ± 0.41.
In turn, NGMFLRTRCIRVFAVRRMLQ came in with an amyloid nucleation score of 1.12 ± 0.26.
Take RDAGSGREL: the amyloid nucleation score entry is “inactive”.
With RYVNVCYNSSAWGLFGTTHI, the amyloid nucleation score result was “inactive”.
As for SGDFI, the amyloid nucleation score result was “inactive”.
In turn, RTGLTRYLLYFPV yielded an amyloid nucleation score of 0.326 ± 0.22.
In the case of LKMGVGCRGRLLWCSLTCMR, the amyloid nucleation score was 1.46 ± 0.31.
QLTQYQSKTRTMCRKQERTV displayed an amyloid nucleation score of 1.88 ± 0.43.
Turning to SAFIVNCNLINAQERDFKSD, the amyloid nucleation score amounted to 6.682 ± 0.034.
With DFDSQRSLKSSDRRFVTFTY, the amyloid nucleation score is -0.869 ± 0.55.
With TMMSLSGIVL, the amyloid nucleation score is -0.376 ± 0.48.
For NRNKAASYNGLYCFDPAIVD, the amyloid nucleation score is -1.09 ± 0.55.
The same measure for IMRCGMLVASKFQGEGRNRT: 0.747 ± 0.43; for DRFRYICSYVENSDYLLRCL: “inactive”; for LRVMSSISDDNAQEFDDFCV: 3.75 ± 0.062.
On to LTGCAKLGSLKLSLAPVYVD, for which the amyloid nucleation score amounted to 0.811 ± 0.82.
Consider RLLMGPVNSFGR, for which the amyloid nucleation score is 3.57 ± 0.07.
On to CLSRLNVLWYSPFKHFILEC, for which the amyloid nucleation score was -0.267 ± 0.45.
Substance FTVVIINISYTLSVLRERQM displayed an amyloid nucleation score of 1.5 ± 0.14.
Regarding LFVIWNTCVNYFLDVLSGHN, the amyloid nucleation score stood at 3.86 ± 0.12.
In the case of FILDGSPVYWAIWKGG, the amyloid nucleation score was -1.46 ± 0.78.
With YRAAWSSAAG, the amyloid nucleation score is -0.137 ± 1.1.
The result for CRIVKRVRAADRRMWIMCLG reads -0.256 ± 0.37; that for CDANM, 0.785 ± 0.51.
In the case of FGSLTMEEFGDGDVVSNNKG, the amyloid nucleation score is -0.956 ± 0.31.
For the substance SIQCMISWQDRDNVEACKVE, the amyloid nucleation score came to 0.346 ± 0.21.
On to CDVNYL, for which the amyloid nucleation score was -0.681 ± 0.3.
For the substance DIGSMYEMLCRVVTIVLPRS, the amyloid nucleation score is -0.723 ± 1.1.
The same measure for LRAGLMHGWMRFRCTRVACV: -0.914 ± 0.64; for HWMVGKV: 0.164 ± 0.28; for TVWGQECYW: 5.74 ± 0.077.
The same measure for SMYPGLDT: -0.353 ± 0.79; for WNAALKYKAHVGIDVSRCVP: 0.535 ± 0.33; for SIYSSGNALTYQRIHNWVGI: -0.953 ± 0.44.
Take MMFTSQTGDLLFF: the amyloid nucleation score was 4.89 ± 0.051.
Turning to VGDRSFVMFSIFESAGSCCT, the amyloid nucleation score was 1.03 ± 0.25.
MHEAH came in with an amyloid nucleation score of 0.439 ± 0.46.
Substance SREINITLGKTFYPSRMYGV yielded an amyloid nucleation score of 4.48 ± 0.05.
Turning to FDQSFFNLPQGTFLVLYSSA, the amyloid nucleation score entry was “inactive”.
The substance LMCNKESSNPICGLWVCFWA yielded an amyloid nucleation score of 9.489 ± 0.037.
SYNFM: the amyloid nucleation score entry was “inactive”.
On to FCMAISFQCVNTRGFMPTAG, for which the amyloid nucleation score worked out at 7.394 ± 0.071.
CRSKASSSIRIPT came in with an amyloid nucleation score of 0.586 ± 0.81.
As for FRMSVKR, the amyloid nucleation score turned out to be 0.309 ± 0.33.
As for LSDAMILNLRAIFSSISLLQ, the amyloid nucleation score was -0.86 ± 0.78.
Regarding MHMYMRSGFLLLFVSWVREC, the amyloid nucleation score was -0.958 ± 0.76.
As to GSLMHEFAH, the amyloid nucleation score was -0.698 ± 0.78.
With RFYGVY, the amyloid nucleation score entry was “inactive”.
For the substance FMNLTLGIYKDFITFMMYVS, the amyloid nucleation score worked out at 1.83 ± 0.12.
For the substance VMHSYDYVTMGFRSRTDPFR, the amyloid nucleation score came to 3.05 ± 0.14.
In turn, LQHYDLGSCSCRWVLVTSDK had an amyloid nucleation score of 0.584 ± 0.22.
The same measure for LVHYFICHVPFLIFRYDKVT: “inactive”; for VPNFRS: 4.16 ± 0.037.
As to DTMDSAAFTLHCIVWGYPVG, the amyloid nucleation score entry is “inactive”.
GLLTGITILIVVDSCLGVCF had an amyloid nucleation score of 3.99 ± 0.095.
Consider MLSLVMRVGFNCFIT, for which the amyloid nucleation score is 0.208 ± 1.1.
The result for EIQHRNTAYYRSVSVGPTAV reads 0.987 ± 0.67; that for MVVLCHINLYEYGSFNPSST, 6.31 ± 0.077; that for DCLYRLSIKSSKAMVSHECR, -0.142 ± 0.79.
As for AKYRLVVLSEFYSLTPRVLD, the amyloid nucleation score was -0.107 ± 1.
As to NCFSSRGGARTFGIKLIFSV, the amyloid nucleation score worked out at 0.524 ± 0.51.
In turn, NFFRAENVYCSMLFSKGWDW gave an amyloid nucleation score of 6.966 ± 0.049.
The same measure for FCESCKWNL: 1.29 ± 0.14.
As to KTNSIPYSMVS, the amyloid nucleation score is -0.113 ± 1.1.
The result for IPQEYPSDSMDVVMYISTLV reads -0.016 ± 0.79; that for VTFCMQVRAG, 0.524 ± 0.33.
Take HIFHCLSMGILGCSMFLCLD: the amyloid nucleation score stood at 0.952 ± 0.24.
TMYFILLCMLLRGFSSGPPP: the amyloid nucleation score was -1.04 ± 0.78.
Substance MCFFMAREEASRGAKGLAER yielded an amyloid nucleation score of 1.66 ± 0.19.
ARNIGDCRDVSCDWCFSYAF: the amyloid nucleation score was determined as 5.13 ± 0.064.
For KWYKVVNMALALISMWSQAW, the amyloid nucleation score was -0.701 ± 0.63.
As for RLTDLVSMVSLNPLYFMWSS, the amyloid nucleation score is -0.08 ± 0.3.
Substance RKQCNKFGVWDQI came in with an amyloid nucleation score of 0.214 ± 0.5.
For the substance SFLSRL, the amyloid nucleation score was -0.4 ± 0.65.
The result for FFIGIQQWSYHWPVVGVYNK reads “inactive”.
The substance VSTTLTCEMLSVAVLFT displayed an amyloid nucleation score of 0.886 ± 0.3.
In the case of RDLEPYLHIWSLIVSARV, the amyloid nucleation score was -0.014 ± 0.65.
Substance KPWVTLLVCCSVYRFFMYYA showed an amyloid nucleation score of 4.96 ± 0.081.
The same measure for GVCPTVVCPHYIDVRML: 0.16 ± 0.55; for MVLLCIFQ: 8.273 ± 0.064.
For VSSHNCWFFRGSGWFLFHHW, the amyloid nucleation score result was “inactive”.
The same measure for LCWLATRVLSSNDSLYENME: 3.65 ± 0.071; for HIIISKYHINYCRMMNYSGK: 8.137 ± 0.056; for FCIPYGGLIDTA: -1.52 ± 0.41.
As to NNCVQTGSGGGGRCLRDTCG, the amyloid nucleation score came out at 3.8 ± 0.085.
RMDVSYLAFVWSHN gave an amyloid nucleation score of 3.5 ± 0.056.
As for LYAVRPLTVGTKCYMMRGLL, the amyloid nucleation score is -1.59 ± 0.49.
YWFVGTPCAVRVGWFSQPHR returned an amyloid nucleation score of 0.612 ± 0.45.
Regarding SFEFVACVVMYMCCRTMFIL, the amyloid nucleation score is -0.164 ± 0.24.
As to FIRHSTSALGP, the amyloid nucleation score stood at 0.889 ± 0.43.
The same measure for VFCINAFRALQTYCCWMYF: 1.91 ± 0.087.
The same measure for AGFTLYFGMTRNYQYSDCSP: 4.23 ± 0.066; for AWDRDVNDENLVSIYMCRKL: -0.233 ± 0.32.
LMLTCKLSFPGLVNLSCSPI: the amyloid nucleation score is -0.84 ± 0.34.
Regarding LVNSKYDLGSSGSFDNRFAC, the amyloid nucleation score was -0.242 ± 0.63.
Regarding QCLYWV, the amyloid nucleation score entry was “inactive”.
In the case of FGIFVNRLCFSIDSYAGNGK, the amyloid nucleation score was found to be 6.605 ± 0.037.
The same measure for IIVSDSPTLQRS: 0.163 ± 0.63.
As for TLWYRLFLVSISVFPKFVTE, the amyloid nucleation score is -0.451 ± 1.1.
On to YSIYEYG, for which the amyloid nucleation score was 1.41 ± 0.15.
As to LLFVCVFYVYSSPDNHILAM, the amyloid nucleation score is -0.633 ± 1.1.
The same measure for HSFVNNEKASQMSSCETGGS: -0.509 ± 0.41.
The result for MNDLMYVVLSRCSMIGNCGS reads 1.29 ± 0.17.
SMDRLRRDGYLGSVVCYNRS: the amyloid nucleation score was -0.935 ± 0.54.
RWVSGQTYVVLSIVR came in with an amyloid nucleation score of 0.242 ± 0.28.
The same measure for CWNKEGRFTRVTMEHASRRA: 0.973 ± 0.48.
With MLCCLCMMVCDR, the amyloid nucleation score was 8.673 ± 0.032.
GCMTMTWMTNYLSFHNDTFT displayed an amyloid nucleation score of 4.26 ± 0.065.
For the substance IFNRSASYLAFFHKG, the amyloid nucleation score was found to be 4.3 ± 0.079.
LYQSYHELSFVTVHRSSKVD displayed an amyloid nucleation score of 2.45 ± 0.15.
Substance IMMWFYPARTRQELASYEDQ displayed an amyloid nucleation score of 2.12 ± 0.089.
As for RVYMRISFSLSLLIAMSNLI, the amyloid nucleation score is -0.315 ± 0.64.
With TVSSIKFVVYSGLRWYELVY, the amyloid nucleation score came to 2.27 ± 0.1.
VGSVICMFMCWFA: the amyloid nucleation score is 4.75 ± 0.036.
Consider DMWMRVILSDNGNQEVPK, for which the amyloid nucleation score is -0.293 ± 0.27.
Consider FRDIVWF, for which the amyloid nucleation score was -0.469 ± 0.55.
The substance VREYQSWPKGCCT gave an amyloid nucleation score of 4.78 ± 0.065.
The result for RPIKRV reads 0.173 ± 0.2; that for SGRHVNVLYYNFNGPDDQFK, 6.866 ± 0.029.
GNLVC showed an amyloid nucleation score of 0.821 ± 0.19.
As for SDEVVVFRRDMSGCHEFVLV, the amyloid nucleation score was found to be 1.12 ± 0.27.
Take SNGFGCAEVSGYYVSN: the amyloid nucleation score was -0.691 ± 0.79.
As for YSNSPCVIYNMKGRGSLLSH, the amyloid nucleation score was -1.6 ± 0.64.
In the case of LTMLPDNVPTKALFSYLSVT, the amyloid nucleation score was -1.24 ± 0.76.
In the case of VVAFRMSSDNAHSHDLPVPW, the amyloid nucleation score was 5.59 ± 0.073.
For the substance KQLMRGIWDRG, the amyloid nucleation score was -0.217 ± 0.79.
Take QLGIGFFGRKWDGHL: the amyloid nucleation score came to 2.79 ± 0.16.
The same measure for TCSFMMCLPTRLARIIDPWM: -0.322 ± 0.49; for LLSSFIALSWCWRWFKHSS: 4.972 ± 0.045; for SSRNASGYAWRVSNCVCVWG: 7.9 ± 0.079.
In the case of FSIDVSSYRMWLPVSDLYFI, the amyloid nucleation score is -0.545 ± 0.76.
On to CRNRVDECSIWRD, for which the amyloid nucleation score was -0.046 ± 1.
Substance YCRHIAVECSVGLHWHGGTV had an amyloid nucleation score of 3.26 ± 0.15.
With SADRECCQHEFGASPRLRVG, the amyloid nucleation score amounted to 4.907 ± 0.041.
The result for KFIFTSLAN reads -0.425 ± 0.61.
Turning to SGESSNCWLMIL, the amyloid nucleation score entry was “inactive”.
In turn, YTVNCCIRANANGAFFSKVQ registered an amyloid nucleation score of 3.69 ± 0.053.
On to VSIVRYIFSPNWFVTIASIY, for which the amyloid nucleation score is -1.51 ± 0.49.
Consider RRALIWIAIHECIRTTPHLL, for which the amyloid nucleation score is -0.434 ± 0.76.
As to VVYRLDFRPFNSPPCMRSAS, the amyloid nucleation score is 0.074 ± 0.32.

Source of the values: the supplement of paper PMC12042874.
